{
  "source": "patent US11110182B2",
  "about": "“Multifunctional RNA nanoparticles and methods for treating cancer and therapeutic resistant cancer” (University of Cincinnati, priority 2016, dated 2021)",
  "molecules": {"B1": {"name": "pRNA-HER2apt-siMED1: 3-WJ pRNA nanoparticle bearing a HER2-targeting RNA aptamer and two different MED1 siRNAs; strands p1 SEQ ID NO: 3, p2 SEQ ID NO: 4 (nucleic acid)", "chain 1": "GGACAGUGAAAGUGAGUCAAAGGAUCAAUCAUGGCCAAAGAUGUUACUUUGAGAGCCUU", "chain 2": "GGCUCUCAAAGUAACAUCUAAGGCCAUGUGUAUGUGGGGGGAGGACGAUGCGGUCUGCUGUGCUUGAUAUGCCCCAGACGACUCGCCCCCCACAUACUUUGUUGAUCCAAUGACUCACUUUCACUGUCCUU", "modifications": "2'-F modification; third strand may lack entry; pRNA-HER2apt-siMED1, p1; pRNA-HER2apt-siMED1, p2"}},
  "system": "MDA-MB-231 cells",
  "assay": "pRNA nanoparticle cellular uptake assay (confocal, flow cytometry), MDA-MB-231",
  "assay_type": "cell-based, human",
  "conditions": "MDA-MB-231 (HER2-negative), AF647-conjugated, 10 μg/mL, confocal microscopy",
  "text": "FIG. 8A) HER2 expression in BT474 and MDA-MB-231 cells determined by western blot analyses. FIG. 8B) The binding of AF-647-labeled pRNA-HER2apt-siMED1 and its mutant nanoparticles to MDA-MB-231 and BT474 cells examined by confocal microscopy. Green represents the immunofluorescent staining of HER2, and blue represents nuclear staining with DAPI. FIG. 8C) The internalization of AF647-labeled pRNA nanoparticles by MDA-MB-231 cells examined by confocal microscopy. Green represents the immunofluorescent staining of β-actin. Scale bar: 10 μm. FIG. 8D) The cellular uptake of AF647-labeled pRNA nanoparticles by MDA-MB-231 cells quantified by flow cytometry. FIG. 8E) HER2 expression in BT474 xenograft tumors was examined by western blot analyses. FIG. 8F) MDA-MB-231 cells were incubated directly with (as indicated by-) or transfected with pRNAs using lipofectamine 2000. At 48 h post treatment, MED1 protein levels were determined by western blots.\nCell culture. […] The hydrodynamic diameter and Tm value of pRNA nanoparticles were determined using dynamic light scattering and TGGE assay, respectively, as previously described.^54 The AFM imaging of the pRNA nanoparticles was performed at the University of Nebraska Medical Center imaging facility as previously reported.^55 Briefly, the pRNA nanoparticles (5 μL) were deposited on APS modified mica ^56 for a total of 2 min of incubation time. […]",
  "data": [
    {"molecule": "B1", "values": [
      {"measurement": "binding and internalization into cells", "result": "not"}
    ]}
  ]
}
